Where a chain is given by its changes, count along the chain named. Names and notes keep the numbering of the source.
T1: EsCas13d, nuclease-dead (Eubacterium siraeum, UniProt B0MS50, R295A;H300A;R849A;H854A)
T1 sequence: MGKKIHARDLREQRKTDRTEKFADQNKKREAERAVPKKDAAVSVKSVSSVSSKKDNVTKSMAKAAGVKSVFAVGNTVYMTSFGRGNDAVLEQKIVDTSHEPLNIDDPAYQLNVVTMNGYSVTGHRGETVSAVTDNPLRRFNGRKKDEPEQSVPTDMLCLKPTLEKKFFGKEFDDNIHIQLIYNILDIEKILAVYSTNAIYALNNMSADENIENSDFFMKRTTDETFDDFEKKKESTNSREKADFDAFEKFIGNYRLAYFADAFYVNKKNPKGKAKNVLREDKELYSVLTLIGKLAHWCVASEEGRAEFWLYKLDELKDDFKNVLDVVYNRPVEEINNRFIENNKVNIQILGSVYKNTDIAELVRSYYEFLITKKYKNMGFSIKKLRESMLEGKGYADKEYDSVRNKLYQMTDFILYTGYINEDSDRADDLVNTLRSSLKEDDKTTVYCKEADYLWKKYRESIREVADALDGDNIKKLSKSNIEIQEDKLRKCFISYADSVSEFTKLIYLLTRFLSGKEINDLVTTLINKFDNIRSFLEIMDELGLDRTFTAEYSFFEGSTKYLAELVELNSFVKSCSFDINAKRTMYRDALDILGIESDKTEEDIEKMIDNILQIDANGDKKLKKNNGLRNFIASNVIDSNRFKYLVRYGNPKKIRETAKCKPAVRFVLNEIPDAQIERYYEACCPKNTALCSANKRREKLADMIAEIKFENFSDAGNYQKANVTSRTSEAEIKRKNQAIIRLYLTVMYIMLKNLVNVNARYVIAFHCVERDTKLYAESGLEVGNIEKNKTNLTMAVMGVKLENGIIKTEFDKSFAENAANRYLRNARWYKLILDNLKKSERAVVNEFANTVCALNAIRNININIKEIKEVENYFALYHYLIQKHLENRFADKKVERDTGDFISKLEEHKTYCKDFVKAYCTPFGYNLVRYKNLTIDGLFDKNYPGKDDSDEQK

B1: target 2 MT 5'PFS UCA 3'PFS UCA (mixed)
RNA 1: CACCCGUGCAAAAUUGCAGGGGUCUAAAACCUUCUCCAAAUUGUUUCAUCCU
RNA 2: GGGAAUGGAUCCACAUCUACGAAUUCUCAAGGAUGAAACAAUUUGGAGAAGUCAAGAUCGGAAGAGCACACGU
B2: target 2 MT 5'PFS GAG 3'PFS AUG (mixed)
RNA 1: B1 RNA 1
RNA 2: B1 RNA 2 with U27G, C28A, A29G, U52A, C53U, A54G
B3: target 2 MT 5'PFS AGA 3'PFS ACU (mixed)
RNA 1: B1 RNA 1
RNA 2: B1 RNA 2 with U27A, C28G, U52A, A54U
B4: target 2 MT 5'PFS GUU 3'PFS AGA (mixed)
RNA 1: B1 RNA 1
RNA 2: B1 RNA 2 with U27G, C28U, A29U, U52A, C53G
B5: target 2 MT 5'PFS AGC 3'PFS CAU (mixed)
RNA 1: B1 RNA 1
RNA 2: B1 RNA 2 with U27A, C28G, A29C, U52C, C53A, A54U
B6: target 2 MT 5'PFS AGA 3'PFS ACA (mixed)
RNA 1: B1 RNA 1
RNA 2: B1 RNA 2 with U27A, C28G, U52A
B7: target 2 MT 5'PFS CUU 3'PFS AAU (mixed)
RNA 1: B1 RNA 1
RNA 2: B1 RNA 2 with U27C, C28U, A29U, U52A, C53A, A54U
B8: target 2 MT 5'PFS GUU 3'PFS AGG (mixed)
RNA 1: B1 RNA 1
RNA 2: B1 RNA 2 with U27G, C28U, A29U, U52A, C53G, A54G
B9: target 2 MT 5'PFS AUA 3'PFS CUU (mixed)
RNA 1: B1 RNA 1
RNA 2: B1 RNA 2 with U27A, C28U, U52C, C53U, A54U
B10: target 2 MT 5'PFS AGC 3'PFS CAC (mixed)
RNA 1: B1 RNA 1
RNA 2: B1 RNA 2 with U27A, C28G, A29C, U52C, C53A, A54C
B11: target 2 MT 5'PFS AGC 3'PFS CAG (mixed)
RNA 1: B1 RNA 1
RNA 2: B1 RNA 2 with U27A, C28G, A29C, U52C, C53A, A54G
B12: target 2 MT 5'PFS AGC 3'PFS AGC (mixed)
RNA 1: B1 RNA 1
RNA 2: B1 RNA 2 with U27A, C28G, A29C, U52A, C53G, A54C
B13: target 2 MT 5'PFS AUA 3'PFS CUC (mixed)
RNA 1: B1 RNA 1
RNA 2: B1 RNA 2 with U27A, C28U, U52C, C53U, A54C
B14: target 2 MT 5'PFS AGC 3'PFS AGG (mixed)
RNA 1: B1 RNA 1
RNA 2: B1 RNA 2 with U27A, C28G, A29C, U52A, C53G, A54G
B15: target 2 MT 5'PFS AGA 3'PFS ACG (mixed)
RNA 1: B1 RNA 1
RNA 2: B1 RNA 2 with U27A, C28G, U52A, A54G
B16: target 2 MT 5'PFS AAU 3'PFS CGC (mixed)
RNA 1: B1 RNA 1
RNA 2: B1 RNA 2 with U27A, C28A, A29U, U52C, C53G, A54C
B17: target 2 MT 5'PFS AGC 3'PFS AGA (mixed)
RNA 1: B1 RNA 1
RNA 2: B1 RNA 2 with U27A, C28G, A29C, U52A, C53G
B18: target 2 MT 5'PFS AUG 3'PFS CGA (mixed)
RNA 1: B1 RNA 1
RNA 2: B1 RNA 2 with U27A, C28U, A29G, U52C, C53G
B19: target 2 MT 5'PFS AUA 3'PFS CUA (mixed)
RNA 1: B1 RNA 1
RNA 2: B1 RNA 2 with U27A, C28U, U52C, C53U
B20: target 2 MT 5'PFS GAU 3'PFS UUA (mixed)
RNA 1: B1 RNA 1
RNA 2: B1 RNA 2 with U27G, C28A, A29U, C53U
B21: target 2 MT 5'PFS GCU 3'PFS CUU (mixed)
RNA 1: B1 RNA 1
RNA 2: B1 RNA 2 with U27G, A29U, U52C, C53U, A54U
B22: target 2 MT 5'PFS AAU 3'PFS CGG (mixed)
RNA 1: B1 RNA 1
RNA 2: B1 RNA 2 with U27A, C28A, A29U, U52C, C53G, A54G
B23: target 2 MT 5'PFS UUA 3'PFS CCG (mixed)
RNA 1: B1 RNA 1
RNA 2: B1 RNA 2 with C28U, U52C, A54G
B24: target 2 MT 5'PFS UUA 3'PFS CCA (mixed)
RNA 1: B1 RNA 1
RNA 2: B1 RNA 2 with C28U, U52C
B25: target 2 MT 5'PFS CUU 3'PFS AAG (mixed)
RNA 1: B1 RNA 1
RNA 2: B1 RNA 2 with U27C, C28U, A29U, U52A, C53A, A54G
B26: target 2 MT 5'PFS AUA 3'PFS CUG (mixed)
RNA 1: B1 RNA 1
RNA 2: B1 RNA 2 with U27A, C28U, U52C, C53U, A54G
B27: target 2 MT 5'PFS AGC 3'PFS CAA (mixed)
RNA 1: B1 RNA 1
RNA 2: B1 RNA 2 with U27A, C28G, A29C, U52C, C53A
B28: target 2 MT 5'PFS ACC 3'PFS CUA (mixed)
RNA 1: B1 RNA 1
RNA 2: B1 RNA 2 with U27A, A29C, U52C, C53U
B29: target 2 MT 5'PFS GUU 3'PFS AGC (mixed)
RNA 1: B1 RNA 1
RNA 2: B1 RNA 2 with U27G, C28U, A29U, U52A, C53G, A54C
B30: target 2 MT 5'PFS AGA 3'PFS ACC (mixed)
RNA 1: B1 RNA 1
RNA 2: B1 RNA 2 with U27A, C28G, U52A, A54C
B31: target 1 insC 3' of 18,insA 3' of 10 (mixed)
RNA 1: CACCCGUGCAAAAAUGCAGGGGUCUAAAACUGAGCGGAUAACCUCUCUAUGG
RNA 2: GGGAAUGGAUCCACAUCUACGAAUUCGUACCAUACGAGAGGUUAAUCCGCUCACCGAGAUCGGAAGAGCACACGU
B32: target 1 U3G,C7U (mixed)
RNA 1: B31 RNA 1
RNA 2: GGGAAUGGAUCCACAUCUACGAAUUCGUACCAUAGAGAGGUUAUUCGCGCACCGAGAUCGGAAGAGCACACGU
B33: target 1 C6G,C21U (mixed)
RNA 1: B31 RNA 1
RNA 2: B32 RNA 2 with C31U, U45C, C46G, G49U

Biological target: T1, EsCas13d, nuclease-dead
Assay: crRNA (strand 1, pre-loaded); Mg2+; 40 mM Tris-HCl pH 7.5, 150 mM NaCl, 6 mM MgCl2, 1 mM DTT, 0.1% Tween-20, 0.2 mg/ml BSA; 25 C; 10 min per concentration, then washed
Details: tags: His6-TwinStrep-SUMO cleaved; N-terminal SNAP kept (SNAP-Surface 488); label: 3' end held by stalled T7 RNA polymerase

Binder	Kd [nM]
B1	4.3 ± 0.7
B2	5.9 ± 0.4
B3	11.6 ± 1.9
B4	10 ± 1.1
B5	7.3 ± 1.3
B6	4.6 ± 1.1
B7	4.3 ± 0.6
B8	12.5 ± 0.9
B9	20 ± 6
B10	11.4 ± 2.6
B11	6.7 ± 1.1
B12	7.1 ± 1.6
B13	13 ± 4
B14	7.1 ± 1
B15	10.3 ± 1.8
B16	7.3 ± 1.3
B17	7.1 ± 1

Binder	Kd [nM]
B18	9.4 ± 1
B19	6.1 ± 1.4
B20	23 ± 7
B21	17.5 ± 3
B22	4.6 ± 0.6
B23	39 ± 4
B24	29 ± 5
B25	4.1 ± 0.4
B26	8.8 ± 1.6
B27	7 ± 1.8
B28	9.7 ± 2.5
B29	11.6 ± 1.2
B30	21 ± 9
B31	52 ± 4
B32	5.39 ± 0.15
B33	5.38 ± 0.17
